Results taken from paper PMC6769508.
Several values for one entry are separate records, joined by “and”; a condition that tells them apart may be missing. Equal values may be shown once.

Experiments:
[1] = biological target: TeKaiCDD, T. elongatus KaiC mutant with Ser431 and Thr432 substituted by aspartate residues (Thermosynechococcus elongatus) (UniProt Q79V60); test: native MS; TeKaiCDD (20 µM) titrated with KaiB or SasA proteins, incubated at 37 °C for 6 h, buffer-exchanged into 150 mM ammonium acetate, pH 6.8; nanoflow ESI
[2] = biological target: TeSasA, T. elongatus SasA (wild type, full-length) (Thermosynechococcus elongatus); test: native MS; TeSasA or TeSasAN alone; 150 mM ammonium acetate, pH 6.8

Sequence of TeKaiCDD, T. elongatus KaiC mutant with Ser431 and Thr432 substituted by aspartate residues (Thermosynechococcus elongatus) (Q79V60 other isoform, or with tags, fused parts or gaps mutant): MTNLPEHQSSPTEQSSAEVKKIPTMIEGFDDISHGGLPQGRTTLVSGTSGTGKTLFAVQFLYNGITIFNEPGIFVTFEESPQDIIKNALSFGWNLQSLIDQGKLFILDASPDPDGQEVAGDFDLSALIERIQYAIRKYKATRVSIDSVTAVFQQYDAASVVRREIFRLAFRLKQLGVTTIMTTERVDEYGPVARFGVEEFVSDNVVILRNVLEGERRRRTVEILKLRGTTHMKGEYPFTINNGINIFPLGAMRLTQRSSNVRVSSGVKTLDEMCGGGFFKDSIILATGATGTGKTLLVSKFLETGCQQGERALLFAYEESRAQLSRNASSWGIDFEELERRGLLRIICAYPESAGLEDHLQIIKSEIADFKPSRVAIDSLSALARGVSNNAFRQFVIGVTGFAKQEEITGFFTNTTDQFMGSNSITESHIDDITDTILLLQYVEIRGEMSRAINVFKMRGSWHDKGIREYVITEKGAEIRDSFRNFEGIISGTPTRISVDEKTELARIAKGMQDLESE

Substance | stoichiometry N (binder chains per KaiC hexamer) [1] | stoichiometry N [2]
TeSasAN, the N-terminal domain of T. elongatus SasA (domain or fragment) | 2 and 3 and 4 | –
TeSasA, T. elongatus SasA (wild type, full-length) (natural protein) | 2 and 4 and 6 | 2
